Experimental data as given in paper PMC11153131.

Molecular target: recombinant LDLR protein, extracellular domain, immobilised on the QCM chip (human) (UniProt P01130)
Test: quartz crystal microbalance (QCM)

Substance: GP38, a secreted CCHFV glycoprotein (from UniProt Q8JSZ3 248-519) (natural protein)
- Kd: 180 nM

Substance: unlabelled LDL from human plasma (complex)
- Kd: 3 nM
- koff: 0.00112 s⁻¹
- kon: 255000 M⁻¹ s⁻¹

Substance: Human Fc-tagged CCHFV Gc (Fc fusion)
- Kd: 3.3 nM
- koff: 5.9e-05 s⁻¹
- kon: 13000 M⁻¹ s⁻¹
